The source of these data is IntAct's records for PubMed 17167421.

The test concerns the target syt2_rat Syt2 (UniProt P29101).

Turning to “Botulinum neurotoxin type B (Clostridium botulinum) (from UniProt P10844) F1194A”, the “effect of a mutation on the interaction” value is on record as “disrupting interaction strength”.
As to “Botulinum neurotoxin type B (Clostridium botulinum) (from UniProt P10844) F1204A”, the “effect of a mutation on the interaction” value is “disrupting interaction strength”.
Consider “Botulinum neurotoxin type B (Clostridium botulinum) (from UniProt P10844) K1192E”, for which the “effect of a mutation on the interaction” value is recorded as “decreasing interaction strength”.
For “Botulinum neurotoxin type B (Clostridium botulinum) (from UniProt P10844) V1118D”, the “effect of a mutation on the interaction” value is reported as “decreasing interaction strength”.
